Measurements as given in patent US10058586B2, “Use of human small leucine zipper protein in adipocyte differentiation procedure” (Korea University Research and Business Foundation, priority 2013, dated 2018).

What was measured:
PPARγ2 = molecular target: T1, PPARγ2 (Homo sapiens, UniProt P37231); assay: FABP4 enhancer-luciferase reporter analysis of PPARγ2 transcriptional activity in 293T cells; format: cell-based; set-up: expressed in transfected cells; host or cells: 293T cells; details: sLZIP 0.1 to 0.5 μg, 10 nM RZD
T1 sequence (P37231 1-505): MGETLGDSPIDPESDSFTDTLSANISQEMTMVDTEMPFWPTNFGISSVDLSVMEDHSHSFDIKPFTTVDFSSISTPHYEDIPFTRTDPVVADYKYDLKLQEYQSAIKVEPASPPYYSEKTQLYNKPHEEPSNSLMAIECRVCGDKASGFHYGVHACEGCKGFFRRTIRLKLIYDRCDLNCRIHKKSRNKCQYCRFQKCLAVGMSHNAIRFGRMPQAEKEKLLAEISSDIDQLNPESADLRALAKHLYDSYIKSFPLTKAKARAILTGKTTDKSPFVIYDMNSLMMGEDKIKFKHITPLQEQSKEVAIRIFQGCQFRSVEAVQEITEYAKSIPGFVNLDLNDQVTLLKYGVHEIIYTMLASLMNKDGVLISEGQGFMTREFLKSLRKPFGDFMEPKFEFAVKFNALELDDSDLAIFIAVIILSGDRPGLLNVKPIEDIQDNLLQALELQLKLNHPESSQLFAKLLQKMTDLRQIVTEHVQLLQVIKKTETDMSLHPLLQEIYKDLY
Description: Appropriately transfected cells were washed with cold PBS twice, and a reporter lysis buffer (Promega) was used and lysed in a culture dish. Luciferase analysis was performed using a luciferase analysis system (Promega Corporation, Madison, Wis.). A luciferase activity was recorded in Luminometer 20/20^n (Turner BioSystems, Sunnyvale, Calif.) according to instructions of the manufacturer. The luciferase activity was normalized to a β-galactosidase activity. For β-galactosidase analysis, CMV-β-galactosidase was transfected with luciferase reporter genes. All pieces of data were represented as mean±standard deviation of the results from at least three independent experiments.
(§1) A DNA binding ability of sLZIP with various elements in the FABP4 enhancer region was examined. For this purpose, recombinant His-sLZIP fusion proteins (3 μg) were incubated with γ-^32P-labeled oligonucleotide probes containing expected CREB binding elements (FIG. 7B). The γ-^32P-labeled oligonucleotide probes were incubated while an amount of purified His-sLZIPs was increased. […]
Adipocyte differentiation is a well-regulated procedure. […] A promoter activity was measured according to luciferase analysis (FIG. 8B). […] Total RNA was extracted from the cells, and an mRNA expression level of mouse LZIPs was measured using RT-PCR analysis. […]

[1] = test system: CREB element in the FABP4 enhancer; assay: Chromatin immunoprecipitation (ChIP) with HA-sLZIP in C3H10T1/2 cells; format: cell-based; details: RZD treated or not
Description: C3H10T1/2 cells grown in a 100-mm culture dish were infected with adenovirus HA-sLZIP. After the infection, the cells remained in a growth medium until the cells reaches 100% confluence, and the medium was exchanged with a differentiation medium. The cells were washed with 1×PBS, the medium was treated with 1% formaldehyde for 10 minutes at room temperature, and then glycine was added for 5 minutes at a final concentration of 0.125 M. The cells were strapped with PBS, and centrifuged at 1000×g for 5 minutes at 4° C. ChIP analysis was performed such that anti-HA antibodies and anti-rabbit IgG serving as an internal control group were used and precipitated together with a DNA-protein complex. An enhancer region of FABP4 including a functional CREs was amplified from the prepared DNA.
as §1, with “increased. For competition analysis, unlabeled CREB oligonucleotide probes of 100-fold excess were used and His antibodies were added to a reaction mixture on ice for additional 40 minutes (FIG. 7C).” for “increased.”

B1: sLZIP: human small leucine-zipper protein, isoform of LZIP, 354 amino acids, no transmembrane domain; GenBank FJ263669, SEQ ID NO: 1 (protein, listed as Homo sapiens)
chain: MELELDAGDQDLLAFLLEESGDLGTAPDEAVRAPLDWALPLSEVPSDWEVDDLLCSLLSPPASLNILSSSNPCLVHHDHTYSLPRETVSMDLESESCRKEGTQMTPQHMEELAEQEIARLVLTDEEKSLLEKEGLILPETLPLTKTEEQILKRVRRKIRNKRSAQESRRKKKVYVGGLESRVLKYTAQNMELQNKVQLLEEQNLSLLDQLRKLQAMVIEISNKTSSSSMYSSDTRGSLPAEHGVLSRQLRALPSEDPYQLELPALQSEVPKDSTHQWLDGSDCVLQAPGNTSCLLHYMPQAPSAEPPLEWPFPDLFSEPLCRGPILPLQANLTRKGGWLPTGSPSVILQDRYSG
PPARγ2
  transcriptional activity of PPARγ2 (FABP4 enhancer-luciferase): decreased the transcriptional activity of PPARγ2 in a concentration-dependent manner
[1]
  recruitment to CREB element in the FABP4 enhancer (ChIP): gathered in the CREB element in the FABP4 enhancer
